Data as given in patent US20080219970.

Test system: Ir-CPI (Ixodes ricinus Contact Phase Inhibitor), recombinant, without its peptide signal

Substance | activation of factor XII into factor XIIa by factor XIa, reconstituted system with purified factors, chromogenic substrate | amidolytic activity (chromogenic substrate S-2366), protease preincubated with Ir-CPI at 1:5 molar ratio | activation of factor XII into factor XIIa by kallikrein, reconstituted system with purified factors, chromogenic substrate | amidolytic activity (chromogenic substrate S-2302), protease preincubated with Ir-CPI at 1:5 molar ratio
factor XIa | Ir-CPI inhibits ... the activation of factor XII into factor XIIa by factor XIa | The results obtained did not show any effect of Ir-CPI protein on the amidolytic activity of these factors |  | 
kallikrein |  |  | Ir-CPI did not inhibit the activation of factor XII into factor XIIa by kallikrein | The results obtained did not show any effect of Ir-CPI protein on the amidolytic activity of these factors
